By Kd is commonly meant the concentration at which binding is half-saturated. A low value points to a tighter complex.

For test [1], the target named is EBNA2 PXLXP2 mutant (Epstein-Barr virus, strain W91) (UniProt P12978).
Test [2] concerns the target Epstein-Barr virus nuclear antigen 2 (EBNA2), expressed from a plasmid (Epstein-Barr virus, strain W91) (UniProt P12978).
Test [3] has as its target BS69 MYND domain (BS69_(MYND), residues 516–562) (mouse). Description: ITC; peptide (~1 mM) titrated into BS69_(MYND) or BS69_(CC-MYND) (~0.1 mM) at 5°C; 20 mM Tris-HCl pH 7.5, 100 mM NaCl, 2 mM DTT; one-site fitting model.
The target of test [4] is BS69/ZMYND11 coiled-coil-MYND tandem domains (BS69_(CC-MYND), residues 440–562) (mouse). Described as above.
Test [5] addresses BS69_(MYND) R560A (mouse). The test is described as above.
The target in test [6] is BS69_(MYND) Y532A (mouse). Described as above.
The target of test [7] is flag-tagged BS69_(CC-MYND) Q546A (mouse). Kind of test: co-IP.
In test [8] the target is flag-tagged BS69_(CC-MYND) Q546A/W550A (mouse). Description: co-IP.
Test [9] addresses EBNA2 fragment residues 381–445 (EBNA2_(381–445)) (Epstein-Barr virus, strain B95-8) (UniProt P12978). Description: ITC. For orientation: In ITC the heat of successive injections is recorded.

In test [1], “flag-tagged wild-type BS69_(CC-MYND) (domain or fragment)” registered a BS69 inhibition of the LMP1-Luc reporter activated by the EBNA2 PXLXP2 mutant of 50%. Further, the EBNA2 activation of the LMP1-Luc or Cp-Luc reporter in BJAB cells in the presence of wild-type BS69 (CC-MYND) (around 10-fold without BS69) in [2] was < 2 fold.
As for “EBNA2_(381–389) peptide with an additional Gly-Tyr dipeptide at the C-terminus (NH2-[…]-CONH2)”, the Kd in test [3] was determined as 25.6 µM; in [4], 7.4 µM. The fold decrease of binding against wild-type BS69 (MYND) in [5] was 10 fold; in [6] it was 3 fold.
As for “Epstein-Barr virus nuclear antigen 2 (EBNA2), expressed from a plasmid (from UniProt P12978 1-487) (natural protein)”, the percent reduction of EBNA2 binding against wild type in test [7] turned out to be 50%; in test [8] it was 85%.
Substance “BS69/ZMYND11 coiled-coil-MYND tandem domains (BS69_(CC-MYND), residues 440–562) (domain or fragment)” gave a dissociation constant (Kd) in [9] of 0.24 µM.

These data come from publication PMC4742278, “BS69/ZMYND11 C-Terminal Domains Bind and Inhibit EBNA2” (PLoS Pathogens, 2016).
